From patent US7429563B2, “Peptide carrier for drug delivery” (The Board of Trustees of the University of Illinois, priority 2004, dated 2008)
Entries after “also recorded” stand apart in the source; their conditions may differ.

Assays:
[1] = tested on: albumin; assay: Albumin binding of ELKSLNPRWDGE, albumin from a variety of sources; settings: e.g., human, porcine, murine
[2] = target: T1, HSA (Homo sapiens, UniProt P02768); assay: 125I-HSA binding to MPO peptides immobilized on nitrocellulose (dot-blot); settings: immobilized peptide
T1 construct: purchased Sigma (St. Louis, Mo.)
Description: ^125I-labeling and binding of proteins: HSA and MPO were labeled with ^125I using IODO-GEN reagent from Pierce (Rockford, Ill.). ^125I HSA binding to the MPO peptides was determined by dot-blot analysis. Peptides were immobilized on nitrocellulose membranes and non-specific binding was blocked with bovine γ-globulin (2 mg/ml in PBS) for 1 h at 22° C. Membranes were washed 2× with PBS and incubated with ^125I-labeled HSA (0.3 pM) for 2 h at 22° C. Membranes were then washed 4× with PBS containing 0.05% Tween-20 (PBST) and autoradiography was performed. In some experiments, the membranes were directly counted to determine the membrane-associated radioactivity.
Peptides were immobilized on nitrocellulose membranes and then incubated with 1 ml of 0.3 μM ^125I-HSA in PBS for 2 h. Other details were described in Example 1. Non-specific binding was determined by incubating membranes with ^125I-HSA in the absence of any peptides. Results are shown mean±S.E. for three separate experiments made in triplicate.

[3] = tested on: BLMVEC; assay: MPO uptake and localization by confocal immunostaining; format: cell-based, bovine; settings: for MPO staining (localization): 30 min 37° C.
Description: FIG. 3A-FIG. 3E: Albumin induces the endocytosis of MPO in endothelial cells. BLMVEC grown on glass coverslips were incubated with buffer C for 12 h. Cells were then incubated with buffer C containing 25 nM MPO alone or in combination with Alexa-594 BSA (50 μg/ml) and unlabeled BSA (1 mg/ml) for 30 min at 37° C. Cells were washed 3×, fixed with 4% PFA in HBSS for 30 min at 22° C., and blocked with 5% goat serum in HBBS containing 0.1% Triton X-100 (blocking buffer) for 30 min at 22° C. After washing, the cells were incubated with anti-MPO Ab diluted (1:1000) in blocking buffer at 4° C. overnight. After washing 2×, cells were incubated with Alexa-488 labeled (green) secondary Ab in blocking buffer for 60 min at 4° C. Confocal images were obtained as described in Methods. […] There was a marked co-localization of […] (green) and Alexa-594 BSA (red) in merged image (yellow; right). FIG. 3B: Albumin induces the co-localization of MPO with cholera toxin subunit B (CTB) in endothelial cells. BLMVEC were grown as described in FIG. 3A. Cells were incubated with Alexa 488-CTB; (20 ug/ml), MPO (25 nM), and BSA (1 mg/ml) in buffer C for 30 min at 37° C. After this, cells were washed, fixed, permeabilized, and stained with anti-MPO Ab and AlexaA594 labeled secondary antibody. Cells were visualized by confocal microscopy after mounting. Confocal images of CTB (green-left panel) and anti-MPO Ab staining (red-middle panel) in vesicles are shown. […] There was marked merging in vesicles in the YZ projection image (far left panel) and single frame (X-Y) or single line (Y-Z and X-Z) images (left panel) observed in the presence of albumin compared to the green CTB-positive/MPO negative vesicles observed in the absence albumin (right and far right panels). […]
Immunostaining: Cellular localization of MPO, albumin, CTB (a caveolae marker), and caveolin-1 was determined by confocal microscopy (Minshall et al., J. Cell Biol., 150:1057-1069 (2000); John et al., Am. J. Physiol. Lung Cell Mol. Physiol., 284:L187-L196 (2003)). […] MPO uptake in BLMVEC was determined in the presence or absence of albumin or CTB. […]

[4] = tested on: BLMVEC monolayers; assay: Transendothelial 125I-MPO permeability, Transwell filters; format: cell-based, bovine
Description: FIG. 2A-FIG. 2C: Albumin increases the binding of ^125I-MPO to endothelial cell surface. The binding of ^125I-MPO to BLMVEC was measured as described in Example 1. Results are shown as mean SEM of three separate experiments made in a triplicate binding assay. *, indicates difference from control (p<0.05); **, (p<0.001) different from control (i.e., binding was determined in the presence of 5 mg/ml γ-globulin). […] FIG. 2B: Effects of albumin on time course transendothelial transport of MPO. BLMVEC grown on microporous Transwell filters were used to determine transendothelial transport of MPO as described in Example 1. […] The transendothelial ^125I-MPO clearance rate was calculated as described (24, 27). *, indicates difference from control or CD-treated group (p<0.001). […] Lung preparations were perfused at 37° C. with Krebs-albumin solutions at the indicated concentrations; MPO PS (μl/min/g wet lung) was determined by perfusing ^125I-MPO for 10 min, and removing vascular tracer with Krebs for 6 min and bound tracer with cold (12° C.) acetate buffer (pH 4.5) for 3 min. ^125I-MPO PS increased 2-fold upon increasing [BSA] from 0.05 to 0.4 g/100 ml. […]
Transendotlielial ^125I-MPO permeability: Transendothelial permeability of ^125I-MPO in BLMVEC monolayers was determined using Transwell filter units (24, 27). […]

[5] = tested on: lung microvessels; assay: Pulmonary vascular 125I-MPO permeability x surface area (PS), isolated-perfused lung; design: species or system rat
Description: (§1) FIG. 2A-FIG. 2C: Albumin increases the binding of ^125I-MPO to endothelial cell surface. The binding of ^125I-MPO to BLMVEC was measured as described in Example 1. Results are shown as mean SEM of three separate experiments made in a triplicate binding assay. *, indicates difference from control (p<0.05); **, (p<0.001) different from control (i.e., binding was determined in the presence of 5 mg/ml γ-globulin). […] FIG. 2B: Effects of albumin on time course transendothelial transport of MPO. BLMVEC grown on microporous Transwell filters were used to determine transendothelial transport of MPO as described in Example 1. To study the methyl-B-cyclodextrin (CD) effect, luminal chamber was incubated with 5.0 mM CD for 20 min prior to measuring ^125I-MPO permeability. […] The transendothelial ^125I-MPO clearance rate was calculated as described (24, 27). *, indicates difference from control or CD-treated group (p<0.001). […] Lung preparations were perfused at 37° C. with Krebs-albumin solutions at the indicated concentrations; MPO PS (μl/min/g wet lung) was determined by perfusing ^125I-MPO for 10 min, and removing vascular tracer with Krebs for 6 min and bound tracer with cold (12° C.) acetate buffer (pH 4.5) for 3 min. ^125I-MPO PS increased 2-fold upon increasing [BSA] from 0.05 to 0.4 g/100 ml. […]

[6] = tested on: BLMVEC; assay: 125I-MPO binding to endothelial cell surface; format: cell-based, bovine; settings: increasing BSA 1-50 mg/ml in binding buffer; 4° C., 1 h
Description: as §1

ELKSLNPRWDGE
ability to bind albumin from a variety of sources [1]: able to bind to albumin from any of a variety of sources

EARKIV
binding to HSA (in words) [2]: no binding; also recorded: failed to bind

GLATELGSLNPGWDGEGLYQEAGGIVGAMV [MPO-MT-peptide, mutant of MPO-WT-peptide, K and R replaced with G]
binding to HSA (in words) [2]: failed to bind

methyl-β-cyclodextrin [CD, reference compound]
effect on albumin-induced MPO uptake ([3]; 5.0 mM CD for 20 min at 37° C.): prevented the albumin-induced MPO uptake | effect on transport of 125I-MPO in the presence of albumin ([4]; CD 5.0 mM for 20 min): prevented the transport

B1: MPO: MPO purified from human PMNs (Calbiochem), 125I-labeled for binding and permeability (protein, listed as Homo sapiens)
chain: MGVPFFSSLRCMVDLGPCWAGGLTAEMKLLLALAGLLAILATPQPSEGAAPAVLGEVDTSLVLSSMEEAKQLVDKAYKERRESIKQRLRSGSASPMELLSYFKQPVAATRTAVRAADYLHVALDLLERKLRSLWRRPFNVTDVLTPAQLNVLSKSSGCAYQDVGVTCPEQDKYRTITGMCNNRRSPTLGASNRAFVRWLPAEYEDGFSLPYGWTPGVKRNGFPVALARAVSNEIVRFPTDQLTPDQERSLMFMQWGQLLDHDLDFTPEPAARASFVTGVNCETSCVQQPPCFPLKIPPNDPRIKNQADCIPFFRSCPACPGSNITIRNQINALTSFVDASMVYGSEEPLARNLRNMSNQLGLLAVNQRFQDNGRALLPFDNLHDDPCLLTNRSARIPCFLAGDTRSSEMPELTSMHTLLLREHNRLATELKSLNPRWDGERLYQEARKIVGAMVQIITYRDYLPLVLGPTAMRKYLPTYRSYNDSVDPRIANVFTNAFRYGHTLIQPFMFRLDNRYQPMEPNPRVPLSRVFFASWRVVLEGGIDPILRGLMATPAKLNRQNQIAVDEIRERLFEQVMRIGLDLPALNMQRSRDHGLPGYNAWRRFCGLPQPETVGQLGTVLRNLKLARKLMEQYGTPNNIDIWMGGVSEPLKRKGRVGPLLACIIGTQFRKLRDGDRFWWENEGVFSMQQRQALAQISLPRIICDNTGITTVSKNNIFMSNSYPRDFVNCSTLPALNLASWREAS
modifications: 125I label
MPO staining (localization) ([3]; 25 nM MPO plus 1 mg/ml BSA): markedly co-localized with albumin-containing vesicles | MPO staining (localization) ([3]; 25 nM MPO, absence of albumin): observed only on the cell surface | increase of transendothelial 125I-MPO permeability ([4]; in the presence of albumin, compared to γ-globulin (5 mg/ml)): more than 2 fold | MPO PS at higher BSA concentrations ([5]; BSA 0.25 and 0.4 g/100 ml): did not increase further | increase in 125I-MPO PS ([5]; upon increasing [BSA] from 0.05 to 0.4 g/100 ml): 2 fold | binding of 125I-MPO to the endothelial cell surface [6]: increased the binding
